According to publication PMC4118869 (PLoS ONE, 2014):

Tests used:
[1] = biological target: hemagglutinin of A/Indonesia/05/2005 (H5N1), in the influenza virus antigen standard (Influenza A virus A/Indonesia/05/2005 …, UniProt A5A5L7, strain); experiment: ELISA; settings: one partner purified
[2] = biological target: hemagglutinin of A/Brisbane/10/2007 (H3N2), in the influenza virus antigen standard (Influenza A virus A/Brisbane/10/2007 …, UniProt A8W8K8, strain); experiment: ELISA; settings: one partner purified
[3] = biological target: hemagglutinin of A/Anhui/01/2005 (H5N1), in the influenza virus antigen standard (Influenza A virus A/Anhui/1/2005 (H5N1), UniProt Q1WDM0, strain); experiment: ELISA; settings: one partner purified
[4] = biological target: hemagglutinin of A/Singapore/01/57 (H2N2), in the influenza virus antigen standard (Influenza A virus A/Singapore/1/1957 …, UniProt Q67333, strain); experiment: ELISA; settings: one partner purified
[5] = biological target: hemagglutinin of A/HongKong/213/2003 (H5N1), in the influenza virus antigen standard (Influenza A virus A/Hong Kong/213/2003 …, UniProt Q4H2E2, strain); experiment: ELISA; settings: one partner purified
[6] = biological target: T1, recombinant H7-HA, A/Netherlands/219/2003 (H7N7) (Influenza A virus …, UniProt Q6VMK1); experiment: SPR; data not shown: sdAbs on immobilised recombinant H3-HA and H7-HA; settings: both partners purified
T1 construct: source: bought: Protein Sciences

[7] = biological target: T2, recombinant H3-HA, A/Brisbane/10/2007 (H3N2) (Influenza A virus A/Brisbane/10/2007 …, UniProt A8W8K8, strain); experiment: as above; settings: both partners purified
T2 construct: source: bought: Protein Sciences

[8] = biological target: hemagglutinin of A/California/07/2009 (H1N1)pdm09, in the influenza virus antigen standard (Influenza A virus A/California/07/2009 …, UniProt C3W5X2, strain); experiment: ELISA; settings: one partner purified
[9] = biological target: phage displayed HA gene fragment D363-G478 (Influenza A virus A/California/07/2009 …, UniProt C3W5X2); experiment: ELISA; settings: both partners purified
[10] = biological target: phage displayed HA gene fragment L193-K225 (Influenza A virus A/California/07/2009 …, UniProt C3W5X2); experiment: ELISA; settings: both partners purified
[11] = biological target: phage displayed HA gene fragment P66-I282 (Influenza A virus A/California/07/2009 …, UniProt C3W5X2); experiment: ELISA; settings: both partners purified
[12] = biological target: T3, recombinant H2-HA, A/Japan/305/57 (H2N2) (Influenza A virus A/Japan/305/1957 …, UniProt P03451, strain); experiment: SPR; settings: both partners purified
T3 construct: source: bought: E-Enzymes (Protein Sciences in the SPR methods)

[13] = biological target: recombinant H1-HA (D18-I530), A/California/06/2009 (H1N1)pdm09 (Influenza A virus A/California/06/2009 …, UniProt C3W5S1, strain); experiment: SPR; settings: both partners purified
[14] = biological target: recombinant H5-HA, A/Vietnam/1203/2004 (H5N1) (Influenza A virus A/Vietnam/1203/2004 …, UniProt Q5EP31, strain); experiment: SPR; settings: both partners purified
[15] = biological target: recombinant H9-HA, A/HongKong/1073/99 (H9N2) (Influenza A virus A/Hong Kong/1073/99 …, UniProt Q9ICY5, strain); experiment: SPR; settings: both partners purified
[16] = biological target: hemagglutinin of A/HongKong/1073/99 (H9N2), in the influenza virus antigen standard (Influenza A virus A/Hong Kong/1073/99 …, UniProt Q9ICY5, strain); experiment: ELISA; settings: one partner purified
[17] = biological target: recombinant HA1 domain (D18-R344), A/California/06/2009 (H1N1)pdm09 (Influenza A virus A/California/06/2009 …, UniProt C3W5S1, strain); experiment: SPR; settings: both partners purified
[18] = biological target: T4, recombinant H7-HA, A/Netherlands/219/2003 (H7N7) (Influenza A virus …, UniProt Q6VMK1); experiment: SPR; settings: both partners purified
T4 construct: source: bought: Protein Sciences

[19] = biological target: T5, recombinant H1-HA (H1N1)pdm09 hemagglutinin (Influenza A virus (H1N1)pdm09; …, UniProt C3W5S1, strain); experiment: SPR; settings: both partners purified
T5 construct: source: bought: Protein Sciences

[20] = biological target: recombinant H9-HA, A/HongKong/1073/99 (H9N2) (Influenza A virus A/Hong Kong/1073/99 …, UniProt Q9ICY5, strain); experiment: SPR; settings: both partners purified; remark: listed apart in the source
[21] = biological target: T6, recombinant H2-HA, A/Japan/305/57 (H2N2) (Influenza A virus A/Japan/305/1957 …, UniProt P03451, strain); experiment: SPR; settings: both partners purified
T6 construct: source: bought: E-Enzymes (list of antigens) or Protein Sciences (SPR methods)

B1: R2b-D9 (VHH)
VHH: QVQLVESGGGLVQPGGSLRLSCLASGSAFSLYTMGWYRQAPGNQRELVAAITSGESTNYADSVKGRFTISRDNAKNTVYLQMNSLKPEDTAVYYCNADPLSTGWGQYSYWGQGTQVTVSS
notes: source: E. coli WK6 periplasm, purified (Talon IMAC, Superdex 75 SEC)
binding result [1]: binds | binding result [2]: no binding | binding result [3]: binds | binding result [4]: binds | binding result [5]: binds | binding result [6]: no binding | binding result [7]: no binding | binding result [8]: binds | binding result [9]: no binding | binding result [10]: no binding | binding result [11]: no binding | Kd [12]: 2.17 nM | koff [12]: 0.000163 s⁻¹ | kon [12]: 75400 M⁻¹ s⁻¹ | Kd [13]: 0.18 nM | koff [13]: 2.96e-05 s⁻¹ | kon [13]: 167000 M⁻¹ s⁻¹ | Kd [14]: 0.15 nM | koff [14]: 2.08e-05 s⁻¹ | kon [14]: 141000 M⁻¹ s⁻¹ | Kd [15]: 128 nM | koff [15]: 0.0528 s⁻¹ | kon [15]: 413000 M⁻¹ s⁻¹

B2: R2b-D8 (VHH)
VHH: QVQLVESGGGLVQPGGSLRLSCAASGFTFSWYDVGWYRRAPGKERELVADIASTRGTTNYADSVKGRFTISRDNAKNSVYLQMNSLKPEDTAVYYCNTRRDWRDYWGQGIQVTVSS
notes: as for B1
binding result [1]: binds | binding result [2]: no binding | binding result [3]: binds | binding result [4]: binds | binding result [5]: binds | binding result [6]: no binding | binding result [7]: no binding | binding result [8]: binds | binding result [9]: binds | binding result [15]: no binding

B3: R2b-E8 (VHH)
VHH: QVQLVESGGGLVQPGGSLRLSCAASGSFFSRYRMGWYRQAPGEQRELVAGITYDDSTNYAGSVKGRFTISRDNAKNTVHLQMNSLKPEDTAVYYCNLNPPGNLYWGQGTQVTVSS
notes: as for B1
binding result [1]: binds | binding result [2]: no binding | binding result [3]: binds | binding result [16]: binds | binding result [5]: binds | binding result [6]: no binding | binding result [7]: no binding | binding result [8]: binds | binding result [9]: no binding | binding result [10]: no binding | binding result [11]: no binding | binding result [12]: no binding | Kd [13]: 1.74 nM | koff [13]: 0.000628 s⁻¹ | kon [13]: 361000 M⁻¹ s⁻¹ | Kd [14]: 0.48 nM | koff [14]: 0.000143 s⁻¹ | kon [14]: 299000 M⁻¹ s⁻¹

B4: R1a-A5 (VHH)
VHH: QVQLVESGGGLVQPGGSLRLSCSASGSAVLFSTYPMSWYRQAPGKQRELVAAVTTDGSTSYADYAKGRFTISRDNAKNTVYLQMNSLKPEDTAVYYCNARDGFFNRYDYWGQGTQVTVSS
notes: also called R1a-A5 monovalent; source: E. coli WK6 periplasm, purified (Talon IMAC, Superdex 75 SEC)
binding result [1]: binds | binding result [2]: no binding | binding result [3]: binds | binding result [5]: binds | binding result [6]: no binding | binding result [7]: no binding | binding result [8]: binds | binding result [9]: no binding | binding result [10]: no binding | binding result [11]: no binding | binding result [12]: no binding | Kd [13]: 1.87 nM | Kd [14]: 0.18 nM | binding result [15]: no binding

B5: R1a-B6 (VHH)
VHH: QVQLVESGGGLVQPGGSLRLSCAASGSFFSRYRMGWYRQAPGEQRELVASIAYDGSTSYADPVKGRFTISRDNANTVHLQMYSLKPDDTAVYYCNLDPPGILYWGQGTQVTVSS
notes: also called R1a-B6 monovalent; source: E. coli WK6 periplasm, purified (Talon IMAC, Superdex 75 SEC)
binding result [1]: binds | binding result [2]: no binding | binding result [3]: binds | binding result [4]: binds | binding result [5]: binds | binding result [6]: no binding | binding result [7]: no binding | binding result [8]: binds | binding result [9]: no binding | binding result [10]: no binding | binding result [11]: no binding | Kd [13]: 0.86 nM | Kd [14]: 0.52 nM | Kd [15]: 6.89 nM

B6: R2a-G8 (VHH)
VHH: QLQLAESGGGLVQAGGSLRLSCAASGSTLNNNAIGWFRQAPGKEREGVSCMNSRDGTTNYADSVKGRFTISRDVAKNTVYLQMNSLKPEDTAVYFCAVKGFAPFLIGCPWGKAEYDYWGQGTQVTVSS
notes: as for B1
binding result [1]: binds | binding result [2]: no binding | binding result [3]: binds | binding result [5]: binds | binding result [6]: no binding | binding result [7]: no binding | Kd [17]: 7.66 nM | binding result [8]: binds | binding result [10]: no binding | binding result [11]: no binding | Kd [12]: 18.5 nM | koff [12]: 0.0142 s⁻¹ | kon [12]: 764000 M⁻¹ s⁻¹ | Kd [13]: 3.55 nM | koff [13]: 0.000798 s⁻¹ | kon [13]: 225000 M⁻¹ s⁻¹ | Kd [14]: 9.07 nM | koff [14]: 0.00223 s⁻¹ | kon [14]: 252000 M⁻¹ s⁻¹ | binding result [15]: no binding

B7: R1a-B6 monovalent (VHH)
VHH: B5 VHH
notes: source: E. coli WK6, periplasmic extract, purified (Talon IMAC, Superdex 75 SEC)
binding result [18]: no binding | Kd [19]: 0.36 nM | Kd [20]: 4.19 nM

B8: R1a-A5 monovalent (VHH)
VHH: B4 VHH
notes: as for B7
binding result [18]: no binding | Kd [19]: 1.56 nM | binding result [21]: no binding | binding result [20]: no binding
